# Laboratory results reported in paper PMC8528861, “Structural and functional analysis of target recognition by the lymphocyte adaptor protein LNK” (Nature Communications, 2021).
# Where no end group is shown, it is not given here. [ ]: non-standard residue; d: D form. pY = N[C@@H](Cc1ccc(OP(=O)(O)O)cc1)C(=O)O
# Legend:
# [1] = target: T1, M. musculus LNK SH2 domain (residues 324–446), wild type (mouse, UniProt O09039 324-446); assay: SPR; competition: biotinylated IL6ST pY757 peptide immobilised on a streptavidin chip; 0.1–0.5 μM WT LNK SH2 domain pre-incubated with phosphopeptide and flowed over; 10 mM HEPES pH 7.4, 150 mM NaCl, 3.4 mM EDTA, 0.005% Tween 20; response normalised to LNK only, IC50 fit; conditions: both partners purified
# T1 construct: LNK (SH2B3), mouse, SH2 domain with N-terminal helix, residues 324-446; vector pET-50b(+); also called WT LNK SH2; SH2B3 SH2 domain; source: E. coli (tuner (DE3), BL21(DE3) or C43), purified (His-Tag resin, TEV cleavage, SEC); not shown: NusA, N-terminal, cleaved
# [2] = target: T1, M. musculus LNK SH2 domain (residues …); assay: as above; conditions: both partners purified; remark: listed apart in the source
# T1 sequence (O09039 324-446): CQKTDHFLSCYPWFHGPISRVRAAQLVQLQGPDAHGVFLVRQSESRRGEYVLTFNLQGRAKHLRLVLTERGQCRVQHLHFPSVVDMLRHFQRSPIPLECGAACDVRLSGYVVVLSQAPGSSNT
Binder,IC50 [1] [nM],IC50 [2] [nM]
"LPLS[pY]WQQP (MPL (TPO receptor), intracellular site Y631; also called TPOR pY631) [MPL pY631 phosphopeptide]",> 10000,
FTPD[pY]RLLTEND [JAK2 pY813 peptide mutant +1R],,> 5000

# More lines, in order of falling IC50 [1], values ahead:
IC50 [1] [nM],IC50 [2] [nM],Binder
661,,"PHLK[pY]LYLVVS (also: phosphotyrosine at 454 (Y5 or Y7), EPOR, intracellular site Y454) [EPOR pY454 phosphopeptide]"
138,60,"FTPD[pY]ELLTEND (JAK2, stretch around Y813; also called WT pY813 peptide) [JAK2 pY813 phosphopeptide (12-mer)]"
